According to patent publication US20140322220A1 (Bayer, published 2014):

T1: hFGFR1β-Fc (IIIc) (human, UniProt P11362-14 22-285, limits assumed, biotinylated with biotin-LC-NHS)
T1 construct: Bought, R&D Systems 661-FR
T1 sequence (looked up): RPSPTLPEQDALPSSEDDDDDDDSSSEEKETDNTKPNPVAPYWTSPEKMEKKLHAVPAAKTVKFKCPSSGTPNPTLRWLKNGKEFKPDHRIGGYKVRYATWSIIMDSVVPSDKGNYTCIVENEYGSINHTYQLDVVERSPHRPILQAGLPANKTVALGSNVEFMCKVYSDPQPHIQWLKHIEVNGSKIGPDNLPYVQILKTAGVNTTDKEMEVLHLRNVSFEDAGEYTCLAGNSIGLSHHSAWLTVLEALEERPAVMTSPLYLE

T2: hFGFR3-Fc (IIIb) (human, UniProt P22607-2 23-377, biotinylated with biotin-LC-NHS)
T2 construct: Bought, R&D Systems 1264-FR
T2 sequence (looked up): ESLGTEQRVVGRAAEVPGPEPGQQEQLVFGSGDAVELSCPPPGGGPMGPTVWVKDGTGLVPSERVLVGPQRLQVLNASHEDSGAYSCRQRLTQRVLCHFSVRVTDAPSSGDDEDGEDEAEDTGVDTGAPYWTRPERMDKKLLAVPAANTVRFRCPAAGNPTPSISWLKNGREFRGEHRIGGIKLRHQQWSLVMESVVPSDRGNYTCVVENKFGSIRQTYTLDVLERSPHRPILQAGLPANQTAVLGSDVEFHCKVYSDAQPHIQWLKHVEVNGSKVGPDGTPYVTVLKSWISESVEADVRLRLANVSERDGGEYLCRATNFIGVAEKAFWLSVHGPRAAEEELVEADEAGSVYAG

T3: hFGFR4-Fc (human, UniProt P22455 22-369, biotinylated with biotin-LC-NHS)
T3 construct: Bought, R&D Systems, printed Cat. No. 685-MF
T3 sequence (looked up): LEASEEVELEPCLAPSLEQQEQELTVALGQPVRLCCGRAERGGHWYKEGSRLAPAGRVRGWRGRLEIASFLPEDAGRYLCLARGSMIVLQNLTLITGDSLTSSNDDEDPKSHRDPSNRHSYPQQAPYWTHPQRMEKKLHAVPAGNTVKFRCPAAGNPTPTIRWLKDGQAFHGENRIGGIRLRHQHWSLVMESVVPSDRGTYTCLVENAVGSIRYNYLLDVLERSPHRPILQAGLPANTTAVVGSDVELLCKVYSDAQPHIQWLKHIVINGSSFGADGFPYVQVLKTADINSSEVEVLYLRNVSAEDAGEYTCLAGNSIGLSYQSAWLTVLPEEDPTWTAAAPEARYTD

T4: hFGFR2β-Fc (IIIb) (human, UniProt P21802 22-377, biotinylated with biotin-LC-NHS)
T4 construct: also called FGFR2-2β Fc (IIIb)
T4 chain: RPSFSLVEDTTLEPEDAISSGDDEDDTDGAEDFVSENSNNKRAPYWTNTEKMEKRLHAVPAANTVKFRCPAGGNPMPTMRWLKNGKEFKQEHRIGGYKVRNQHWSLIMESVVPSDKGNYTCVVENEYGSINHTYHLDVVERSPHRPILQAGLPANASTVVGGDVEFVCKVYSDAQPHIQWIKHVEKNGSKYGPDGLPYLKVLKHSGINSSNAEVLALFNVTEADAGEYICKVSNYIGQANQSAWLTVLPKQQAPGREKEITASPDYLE

T5: hFGFR2α-Fc (IIIb) (human, UniProt P21802 22-377, biotinylated with biotin-LC-NHS)
T5 construct: Bought, R&D Systems 663-FR, soluble Fc fusion
T5 chain: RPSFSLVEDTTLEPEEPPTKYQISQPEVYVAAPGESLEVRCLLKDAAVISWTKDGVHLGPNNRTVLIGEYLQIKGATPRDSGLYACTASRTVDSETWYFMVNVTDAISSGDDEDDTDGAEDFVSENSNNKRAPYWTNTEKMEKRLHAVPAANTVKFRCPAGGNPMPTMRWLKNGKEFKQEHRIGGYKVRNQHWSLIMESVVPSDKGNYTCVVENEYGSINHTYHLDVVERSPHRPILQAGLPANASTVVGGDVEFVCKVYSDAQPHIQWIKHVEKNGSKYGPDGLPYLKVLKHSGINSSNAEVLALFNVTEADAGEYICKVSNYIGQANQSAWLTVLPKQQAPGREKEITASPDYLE


Columns and labels:
hFGFR1β-Fc (IIIc) = biological target: T1, hFGFR1β-Fc (IIIc); experiment: ELISA on coated biotinylated Fc fusion
Procedure: (§1) For the ELISA 96-well plates pre-coated with streptavidin (Pierce, 15500) were coated over night at 4° C. with 1 μg/ml biotinylated protein. Wells coated with biotinylated TRAIL-Fc served as a reference. The next day plates were washed 3 times with PBST, treated with blocking reagent, and washed again 3 times with PBST. 100 μl of purified Fabs (1 μg/ml) were added and incubated for 1 h at r.t. After washing 3 times with PBST, an anti-hIgG (Fab-specific) coupled to HRP (1:2500 diluted; Sigma; A 0293) was added and incubated for 1 h at Lt. Color reaction was developed by addition of 50 μl TMB (Invitrogen, 2023) and stopped after 5-15 min by adding 50 μl H₂SO₄ (Merck, 1120801000). Colorimetric reaction was recorded at […] in a plate reader (Tecan). Wells containing TRAIL-Fc were used as background values and the signal to background ratios were calculated as summarized in Table 4.

hFGFR3-Fc (IIIb) = biological target: T2, hFGFR3-Fc (IIIb); experiment: ELISA on coated biotinylated Fc fusion
Procedure: as §1

hFGFR4-Fc = biological target: T3, hFGFR4-Fc; experiment: ELISA on coated biotinylated Fc fusion
Procedure: as §1

hFGFR2β-Fc (IIIb) = biological target: T4, hFGFR2β-Fc (IIIb); experiment: ELISA, 1 ug/ml Fab on coated antigen; grade of signal to background (+ 2-3, ++ 3-5, +++ >5)
Procedure: as §1

hFGFR2α-Fc (IIIb) = biological target: T5, hFGFR2α-Fc (IIIb); experiment: as above
Procedure: as §1

mFGFR2β-Fc (IIIb) = biological target: T6, mFGFR2β-Fc (IIIb) (murine, UniProt P21803-2 22-263, limits assumed, biotinylated with biotin-LC-NHS); experiment: as above
T6 construct: Bought, R&D Systems 708-MF
Procedure: as §1

[1] = biological target: T7, recombinant human FGFR2 (Met 1-Glu 377) with C-terminal polyhistidine tag (human, UniProt P21802 22-377); experiment: protein binding ELISA; against TPP-1415
T7 construct: The range is that of the expressed DNA and begins at Met 1; also called His-tagged FGFR2; recombinant human FGFR2-IIIc molecule
From the text: (§2) Two different types of ELISA were used to determine the binding improvement of mutated variants: a) Peptide Binding ELISA: a synthetic peptide comprising the amino acid sequence of the epitope linked C-terminally to a biotinylated lysine […]-Ttds-Lys(Biotin) (peptide sequence derived from SEQ ID NO:63, synthesized by JPT Peptide Technology GmbH, Berlin, Germany), and b) Recombinant Protein Binding ELISA: recombinant human FGFR2 (DNA sequence of human FGFR2 (NP 000132.3) Met 1-Glu 377, fused with a polyhistidine tag at the C-terminus; #10824-1-1081-1, Sin θ Biological Inc., Beijing, China).
(§3) Briefly, in both ELISA formats MTP plates (384 well Maxisorp, Nunc) were coated with 20 μl, anti-human IgG Fc specific (#12136; sigma) at 2.2 μg/ml for 2.5 h at 37° C. in coating buffer (#121125 Candor Bioscience GmbH). […] Anti-FGFR2 variants were immobilized in concentrations of 0.035 μg/ml (peptide based assay) or 0.2 μg/ml (recombinant human FGFR2 protein based assay) in 10% Smart Block in PBST depending on the format and variants to be analyzed by incubation of 20 μl for one hour at 20-22° C. After one washing step using 50 μl PBST, 20 μl quadruplets of the antigen dilution series in 10% SmartBlock in PBST with a maximum concentration of 100 nM were added and incubated for 1 h at 20-22° C. and the washing step was repeated 3 times. For the detection of the biotinylated epitope peptide 20 μl of streptavidine/POD conjugate (# S5512, Sigma) in a 1:1000 dilution in 10% SmartBlock in PBST were applied for one hour at 20-22° C. For the detection of the recombinant FGFR2 protein 20 μl of anti-His/HRP conjugate (#71840, novagen) in a 1:10000 dilution in 10% SmartBlock in PBST were applied for one hour at 20-22° C. After 3 washing steps 20 μl of 10 μM amplex red substrate (# A12222, Invitrogen) in 50 mM Sodium hydrogen phosphate, pH 7.6, were added and the fluorescence signal was detected using a common fluorescence reader, e.g. Tecan M1000. EC50 values were evaluated by fitting the data (Sigmoida) dose-response, variable slope, bottom set to background; GraphPad Prism software).

[2] = biological target: T7, recombinant human FGFR2 (Met 1-Glu 377) …; experiment: protein binding ELISA, antibody captured by anti-human IgG Fc, FGFR2-His titrated
From the text: as §2, §3

T6 sequence (P21803 other isoform, or with tags, fused parts or gaps limits assumed): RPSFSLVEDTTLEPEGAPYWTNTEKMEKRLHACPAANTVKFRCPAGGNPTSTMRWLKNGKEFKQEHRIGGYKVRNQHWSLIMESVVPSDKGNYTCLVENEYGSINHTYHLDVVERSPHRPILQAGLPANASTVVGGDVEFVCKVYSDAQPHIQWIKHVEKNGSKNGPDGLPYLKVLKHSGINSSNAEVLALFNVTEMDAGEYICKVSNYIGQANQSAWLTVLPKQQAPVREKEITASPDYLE

Row | Binder | binding result (hFGFR1β-Fc (IIIc)) | binding result (hFGFR3-Fc (IIIb)) | binding result (hFGFR4-Fc) | ELISA signal to background ratio (hFGFR2β-Fc (IIIb)) [ratio] | ELISA signal to background ratio (hFGFR2α-Fc (IIIb)) [ratio] | ELISA signal to background ratio (mFGFR2β-Fc (IIIb)) [ratio] | fold EC50 reduction [1] [fold] | EC50 [2] [nM]
1 | TPP-1406 (antibody, human IgG1, lambda, V domains shown, Matured variant of M047-D08) VH: EVQLLESGGGLVQPGGSLRLSCAASGFTFSHSGMHWVRQAPGKGLEWVAVISYDGSNKYYADSVKGRFTISRDNSKNTLYLQMNSLRAEDTAVYYCAREQPLYDFEYWGQGTLVTVSS VL: AQSVLTQPPSASGTPGQRVTISCSGSSSNIGDNGVNWYQQLPGTAPKLLIYGASERPSGVPDRFSGSKSGTSASLAISGLRSEDEADYYCAAWDDSLDGWTFGGGTKLTVLG |  |  |  |  |  |  | 37 | 0.22
2 | TPP-1409 (antibody, human IgG1, lambda, V domains shown, Matured variant of M047-D08) VH: EVQLLESGGGLVQPGGSLRLSCAASGFTFSTSGMHWVRQAPGKGLEWVAVISYDGSNKYYADSVKGRFTISRDNSKNTLYLQMNSLRAEDTAVYYCARESPGYDFEYWGQGTLVTVSS VL: not shown |  |  |  |  |  |  | 3.8 | 2.1
3 | TPP-1410 (antibody, human IgG1, lambda, V domains shown, Matured variant of M047-D08) VH: EVQLLESGGGLVQPGGSLRLSCAASGFTFSHSGMHWVRQAPGKGLEWVAVISYDGSNKYYADSVKGRFTISRDNSKNTLYLQMNSLRAEDTAVYYCAREAPGYDFEYWGQGTLVTVSS VL: not shown |  |  |  |  |  |  | 12 | 0.66
4 | TPP-1411 (antibody, human IgG1, lambda, V domains shown, Matured variant of M047-D08) VH: EVQLLESGGGLVQPGGSMRLSCAASGFTFSSSGMHWVRQAPGKGLEWVAVISYDGSNKYYADSVKGRFTISRDNSKNTLYLQMNSLRAEDTAVYYCAREQPGYDFEYWGQGTLVTVSS VL: not shown |  |  |  |  |  |  | 13 | 0.61
5 | TPP-1407 (antibody, human IgG1, lambda, V domains shown, Matured variant of M047-D08) VH: EVQLLESGGGLVQPGGSLRLSCAASGFTFSHSGMHWVRQAPGKGLEWVAVISYDGSNKYYADSVKGRFTISRDNSKNTLYLQMNSLRAEDTAVYYCAREQPLYDFEYWGQGTLVTVSS VL: not shown |  |  |  |  |  |  | 35 | 0.23
6 | TPP-1412 (antibody, human IgG1, lambda, V domains shown, Matured variant of M047-D08) VH: EVQLLESGGGLVQPGGSLRLSCAASGFTFSHSGMHWVRQAPGKGLEWVAVISYDGSNKYYADSVKGRFTISRDNSKNTLYLQMNSLRAEDTAVYYCAREAPLYDFEYWGQGTLVTVSS VL: not shown |  |  |  |  |  |  | 28 | 0.29

The next lines start with the values.

Row | binding result (hFGFR1β-Fc (IIIc)) | binding result (hFGFR3-Fc (IIIb)) | binding result (hFGFR4-Fc) | ELISA signal to background ratio (hFGFR2β-Fc (IIIb)) [ratio] | ELISA signal to background ratio (hFGFR2α-Fc (IIIb)) [ratio] | ELISA signal to background ratio (mFGFR2β-Fc (IIIb)) [ratio] | fold EC50 reduction [1] [fold] | EC50 [2] [nM] | Binder
7 | no binding | no binding | no binding | > 5 | > 5 | > 5 |  |  | M021-H02 (soluble Fab) (Fab, V domains shown, Soluble Fab from E. coli, purified through its His-tag) VH: EVQLLESGGGLVQPGGSLRLSCAASGFTFSNYGIHWVRQAPGKGLEWVAVISYDGSNKYYADSVKGRFTISRDNSKNTLYLQMNSLRAEDTAMYYCARDSSSAEDYWGQGTLVTVSS VL: QSVLTQPPSASGTPGQRVTISCSGSSSNTGSNTVNWYQQLPGTAPKLLIYRNNQRPSGVPDRFSGSKSGTSASLAISGLRSEDEADYYCETWDSNTRGVVFGGGTKLTVL
8 | no binding | no binding | no binding | > 5 | > 5 | > 5 |  |  | M048-D01 (soluble Fab) (Fab, V domains shown, Soluble Fab from E. coli, purified through its His-tag) VH: EVQLLESGGGLVQPGGSLRLSCAASGFTFSSYAMSWVRQAPGKGLEWVSAISGSGTSTYYADSVKGRFTISRDNSKNTLYLQMNSLRAEDTAVYYCARVRYNWNHGDWFDPWGQGTLVTVSS VL: QSVLTQPPSASGTPGQRVTISCSGSSSNIGNNYVSWYQQLPGTAPKLLIYENYNRPAGVPDRFSGSKSGTSASLAISGLRSEDEADYYCSSWDDSLNYWVFGGGTKLTVL
9 | no binding | no binding | no binding | 3 to 5 | > 5 | > 5 |  |  | M054-A05 (soluble Fab) (Fab, V domains shown, Soluble Fab from E. coli, purified through its His-tag) VH: EVQLLESGGGLVQPGGSLRLSCAASGFTFSNYGMYWVRQAPGKGLEWVAVISYDGTNKYYVDSVKGRFTISRDNSKNTLYLQMNSLRAEDTAVYYCAKDLPKWGGFDSWGQGTLVTVSS VL: not shown
